Positions count from the first letter of the chain named.

Test [1] concerns the target T1, TG7 (human, UniProt Q96PF1).
T1 construct: recombinant, Zedira; also called recombinant human TG7
T1 sequence (enzyme, looked up): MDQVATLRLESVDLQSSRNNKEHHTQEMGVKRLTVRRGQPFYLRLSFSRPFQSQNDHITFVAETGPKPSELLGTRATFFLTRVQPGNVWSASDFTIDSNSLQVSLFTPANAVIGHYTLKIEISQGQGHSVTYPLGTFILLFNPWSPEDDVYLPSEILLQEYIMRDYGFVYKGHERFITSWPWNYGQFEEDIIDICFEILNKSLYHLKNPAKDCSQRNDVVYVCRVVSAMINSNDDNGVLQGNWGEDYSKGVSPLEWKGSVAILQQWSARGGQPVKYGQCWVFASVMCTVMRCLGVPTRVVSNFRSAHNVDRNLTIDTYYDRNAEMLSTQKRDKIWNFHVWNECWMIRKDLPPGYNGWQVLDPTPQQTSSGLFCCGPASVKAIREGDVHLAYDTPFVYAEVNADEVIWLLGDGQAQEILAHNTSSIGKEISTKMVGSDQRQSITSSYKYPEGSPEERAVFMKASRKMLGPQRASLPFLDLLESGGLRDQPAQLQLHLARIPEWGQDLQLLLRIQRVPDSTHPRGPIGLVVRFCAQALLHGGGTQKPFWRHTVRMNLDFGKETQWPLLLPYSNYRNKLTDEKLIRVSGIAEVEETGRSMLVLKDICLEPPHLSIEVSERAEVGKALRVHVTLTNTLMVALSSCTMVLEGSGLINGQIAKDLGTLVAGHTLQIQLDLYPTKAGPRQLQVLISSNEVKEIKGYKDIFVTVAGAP
The test can be described thus: ELISA, purified IgG at 0.1 ug/ml, plates coated with 100 ng of each TG [panel B]. As to the method: (§1) Conditioned medium or purified IgG were tested for reactivity to transglutaminase family members. The ability of each to bind to each transglutaminase (TG1, TG2, TG3, TG5, TG7 and Factor XIIIa; all Zedira) was determined using a plate binding assay. Microtiter plates (Costar, Cambridge, UK) were coated with recombinant TG (Zedira, Darmstadt, Germany) in 50 μl of 0.1 M bicarbonate/carbonate buffer (pH 9.6) overnight at 4° C. Plates were blocked for 2 h at 37° C. with 200 μl PBS containing 3% w/v BSA. Plates were washed three times with PBS containing 0.05% Tween 20 (washing buffer) and 100 μl of diluted conditioned medium (dilution 1:5 to 1:20) or purified anti-TG2 catalytic core mAbs was added. Plates were incubated for a further 1 h at room temperature. The washing step was repeated and anti-mouse gamma chain-horseradish peroxidase (1:5000) in PBS containing 0.05% Tween 20 (v:v) and 1% BSA (w:v) (Sigma, Poole UK) was added for 1 h. […] The reaction was stopped by adding 25 μl of 0.1 M H_2SO_4 and the absorbance at 450 nm was determined.

Test [2] concerns the target T2, TG3 (human, UniProt Q08188).
T2 construct: recombinant, Zedira; also called recombinant human TG3; Epidermal Transglutaminase
T2 sequence (enzyme, looked up): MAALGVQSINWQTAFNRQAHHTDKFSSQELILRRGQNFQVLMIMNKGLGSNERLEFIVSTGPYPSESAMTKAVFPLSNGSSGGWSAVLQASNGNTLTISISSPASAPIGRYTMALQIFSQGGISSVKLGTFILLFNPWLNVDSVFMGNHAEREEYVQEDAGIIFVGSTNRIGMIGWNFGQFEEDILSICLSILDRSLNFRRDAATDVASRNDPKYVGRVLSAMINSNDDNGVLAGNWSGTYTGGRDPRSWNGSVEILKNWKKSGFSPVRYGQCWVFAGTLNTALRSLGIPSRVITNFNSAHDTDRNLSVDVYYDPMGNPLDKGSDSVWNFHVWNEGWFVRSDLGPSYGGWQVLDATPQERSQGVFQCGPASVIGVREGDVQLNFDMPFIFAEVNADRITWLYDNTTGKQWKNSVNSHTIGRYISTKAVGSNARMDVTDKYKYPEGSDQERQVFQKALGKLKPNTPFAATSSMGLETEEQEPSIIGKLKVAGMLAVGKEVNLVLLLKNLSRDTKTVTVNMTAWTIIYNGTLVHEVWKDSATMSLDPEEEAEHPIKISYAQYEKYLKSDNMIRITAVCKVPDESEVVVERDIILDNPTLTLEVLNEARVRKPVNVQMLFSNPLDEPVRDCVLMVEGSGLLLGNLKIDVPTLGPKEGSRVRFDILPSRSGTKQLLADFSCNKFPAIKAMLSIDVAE
In words: ELISA, hybridoma conditioned medium, plates coated with recombinant TG (100 ng/well) [panel A]. As to the method:
as §1

The target of test [3] is T3, TG1 (human, UniProt P22735).
T3 construct: recombinant, Zedira; also called recombinant human TG1; Keratinocyte Transglutaminase
T3 sequence (enzyme, looked up): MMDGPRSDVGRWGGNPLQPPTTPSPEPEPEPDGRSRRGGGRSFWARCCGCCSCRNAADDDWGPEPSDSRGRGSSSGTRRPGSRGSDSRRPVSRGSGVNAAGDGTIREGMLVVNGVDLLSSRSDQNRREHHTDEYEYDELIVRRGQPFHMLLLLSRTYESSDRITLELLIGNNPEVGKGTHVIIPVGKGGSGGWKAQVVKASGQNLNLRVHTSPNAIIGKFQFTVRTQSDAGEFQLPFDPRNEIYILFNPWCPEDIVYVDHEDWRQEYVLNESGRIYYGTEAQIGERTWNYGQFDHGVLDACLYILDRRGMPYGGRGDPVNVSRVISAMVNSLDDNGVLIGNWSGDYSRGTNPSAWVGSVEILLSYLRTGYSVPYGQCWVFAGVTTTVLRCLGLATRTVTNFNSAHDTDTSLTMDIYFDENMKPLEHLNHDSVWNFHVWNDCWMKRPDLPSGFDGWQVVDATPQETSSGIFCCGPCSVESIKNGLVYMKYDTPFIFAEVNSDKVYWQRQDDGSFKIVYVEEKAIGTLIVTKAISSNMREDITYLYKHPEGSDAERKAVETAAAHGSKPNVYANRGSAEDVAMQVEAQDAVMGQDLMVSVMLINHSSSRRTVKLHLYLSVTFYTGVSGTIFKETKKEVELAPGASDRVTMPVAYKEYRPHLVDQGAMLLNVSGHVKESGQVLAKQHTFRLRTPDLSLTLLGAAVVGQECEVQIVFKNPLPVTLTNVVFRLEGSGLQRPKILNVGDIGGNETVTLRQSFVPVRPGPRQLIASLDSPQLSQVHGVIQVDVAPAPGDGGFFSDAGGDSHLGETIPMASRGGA
The description is as above. The procedure:
as §1

B1: DH2 murine monoclonal antibody (antibody, V domains shown)
VH: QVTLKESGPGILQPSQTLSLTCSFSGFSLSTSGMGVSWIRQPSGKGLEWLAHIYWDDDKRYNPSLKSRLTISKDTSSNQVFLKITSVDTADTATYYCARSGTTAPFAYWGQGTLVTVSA
VL: QIVLTQSPAIMSASPGEKVTMTCSASSSVSYMYWYQQKPGSSPRLLIYDTSNLASGVPVRFSGSGSGTSYSLTISRMEAEDAATFYCQQWSSSPLTFGAGTKLELK
notes: Mouse hybridoma IgG; heavy chain amplified with primer MHCG2B, kappa light chain; also called mDH001
In the case of B1, the binding result in test [1] is “no binding (tested: 0.1 ug/ml)”; in test [2] it was “no binding”; in test [3] it was “no binding”.

B2: DD9 murine monoclonal antibody (antibody, V domains shown)
VH: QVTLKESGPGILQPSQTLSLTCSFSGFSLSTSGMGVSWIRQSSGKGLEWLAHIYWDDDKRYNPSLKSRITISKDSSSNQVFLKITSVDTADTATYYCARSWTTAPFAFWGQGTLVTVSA
VL: B1 VL with S30D, E78G, F85Y, S91N
notes: Mouse hybridoma IgG; heavy chain amplified with primer MHCG2A, kappa light chain; also called mDD9001
B2: the values for the binding result in test [1], in test [2] and in test [3] were “no binding (tested: 0.1 ug/ml)”, “no binding” and “no binding”, respectively.

B3: AG9 murine monoclonal antibody (antibody, V domains shown)
VH: EVQLQQSGPELVKPGASVKMSCRASGYTFTTYVIHWVKQKPGQGLEWIGYINPYNDGARYNEKFKGKATLTSDKSSTTAYMELSSLTSEDSAVYYCARLSSDYWGQGTTLTVSS
VL: DVLMTQNPLSLPVSLGDQASISCRSSRSIEHSNGNTYLEWYLQKPGQSPKFLIYKVSNRFSGVPDRFSGSGSGTDFTLRISSVEAEDLGVYYCFQGSHVPFTFGGGTKLEIK
notes: Mouse hybridoma IgG; heavy chain amplified with primer MHCG1, kappa light chain
As for B3, the binding result in test [1] is recorded as “no binding (tested: 0.1 ug/ml)”; in test [2], “no binding”; in test [3], “no binding”.

B4: AH3 murine monoclonal antibody (antibody, V domains shown)
VH: B3 VH
VL: B3 VL
notes: Mouse hybridoma IgG; heavy chain amplified with primer MHCG2B, kappa light chain
As for B4, the binding result in test [1] was “no binding (tested: 0.1 ug/ml)”; in test [2], “no binding”; in test [3], “no binding”.

B5: EH6 murine monoclonal antibody (antibody, V domains shown)
VH: B3 VH with R23K, T31S, I34M, Y50F, A58T, R59K, S75A, L99F, D102G
VL: B3 VL with N7T, R27Q, E30V, F51L, R79K, S82R, E84G, F94L, G96V, G105S
notes: as for B4
Consider B5, for which the binding result is given as “no binding (tested: 0.1 ug/ml)” in test [1], “no binding” in test [2] and “no binding” in test [3].

B6: JE12 murine monoclonal antibody (antibody, V domains shown)
VH: B3 VH with R23K, T28R, T31S, I34M, P41S, R59K, T77S
VL: B3 VL with R27Q, S32I, S82R, V90I
notes: as for B3
Consider B6, for which the binding result in test [1] is reported as “no binding (tested: 0.1 ug/ml)”; in test [2] it was “no binding”; in test [3] it was “no binding”.

B7: AB1 murine monoclonal antibody (antibody, V domains shown)
VH: EVQLVESGGGLVKPGGSLKLSCAASGFTLSSSAMSWVRQTPDRRLEWVATISVGGGKTYYPDSVKGRFTISRDNAKNTLYLQMNSLRSEDTAMYYCAKLISLYWGQGTTLTVSS
VL: DIKMTQSPSSMYASLGERVTITCKASQDINSYLTWFQQKPGKSPKTLIYRTNRLFDGVPSRFSGSGSGQDFFLTISSLEYEDMGIYYCLQYDDFPYTFGGGTKLEIK
notes: Mouse hybridoma IgG; heavy chain amplified with constant region primer MHCG1, kappa light chain; also called mAB003
For the molecule B7, the binding result in test [1] is on record as “no binding (tested: 0.1 ug/ml)”; in test [2], “no binding”; in test [3], “no binding”.

B8: BB7 murine monoclonal antibody (antibody, V domains shown)
VH: AVQLVESGGGLVKPGGSLKLSCAASGIIFSSSAMSWVRQTPEKRLEWVATISSGGRSTYYPDSVKGRFTVSRDSAKNTLYLQMDSLRSEDTAIYYCAKLISPYWGQGTTLTVSS
VL: B7 VL with D1A, T20I, R50L, F55M, D70E, F72L, S77G, Y80H, D92V
notes: Mouse hybridoma IgG; heavy chain amplified with primer MHCG1, kappa light chain; also called mBB001
B8: the binding result in test [2] and in test [3] was “no binding” each time.

B9: DC1 murine monoclonal antibody (antibody, V domains shown)
VH: EVQLVESGGGLVKPGGSLKLSCAASGFTLSTHAMSWVRQTPEKRLEWVATISSGGRSTYYPDSVKGRFTISRDNVKNTLYLQLSSLRSEDTAVYFCARLISTYWGQGTTLTVSS
VL: B7 VL with K3T, M11I, T46I, R50L, T51V, F55V, F71Y, F72A
notes: Mouse hybridoma IgG; heavy chain amplified with primer MHCG1, kappa light chain; also called mDC001
For B9, the figures for the binding result in test [1] and in test [3] were “no binding (tested: 0.1 ug/ml)” and “no binding”, respectively.

(Values after patent US10005846 (LIFEARC, dated 2018).)
